Optical density data for 45 molecules are collected here from US20210380703A1.

Sequences and labels used below:
B1: 368_A03 (antibody, V domains shown)
VH: EVQLLESGGGLVQPGGSLRLSCAASGFTFSSYSMNWVRQAPGKGLEWVSGINYNGGYTGYADSVKGRFTISRDNSKNTLYLQMNSLRAEDTAVYYCARGANWHDTHLDYWGQGTLVTVSS
VL: DIQMTQSPSSLSASVGDRVTITCRASQSIISYLNWYQQKPGKAPKLLIYAVTSRASGVPSRFSGSGSGTDFTLTISSLQPEDFATYYCQQSYENPLTFGGGTKVEIK
B2: 371_E10 (antibody, V domains shown)
VH: B1 VH with S30D, S49A, G59S, H106A
VL: B1 VL with I30S, S31T, E93N, N94S
B3: 371_B09 (antibody, V domains shown)
VH: B1 VH with S49A, G55S
VL: B1 VL with I30L, L33V, L47V, V51T, R54L, E93D, N94T
B4: 371_B03 (antibody, V domains shown)
VH: B1 VH with S33G, N35H, S49A, G50S, G59S
VL: B1 VL with I30L, L33V, V51T, E93D
B5: 371_B12 (antibody, V domains shown)
VH: B1 VH with S31D, S49A, G55S, G59S, H106A
VL: B1 VL with I30V, S31T, L47V, V51A, A55H, E93N
B6: 371_E06 (antibody, V domains shown)
VH: B1 VH with G59S, H106A
VL: B1 VL with I30S, S31T, R54L, A55H, N94S
B7: 371_C05 (antibody, V domains shown)
VH: B1 VH with S31D, S33G, N35H, S49A, G50N, H106A
VL: B1 VL with I30L, V51A, E93D, N94S
B8: 369_B05 (antibody, V domains shown)
VH: B1 VH with S30D, T58K, G59S
VL: B1 VL with V51A, R54L, E93D, N94T
B9: 371_H04 (antibody, V domains shown)
VH: B1 VH with S33G, G50N, H106A
VL: B1 VL with I30L, S31T, V51A, E93N, N94S
B10: 368_E12 (antibody, V domains shown)
VH: B1 VH with S31D, S33G, S49A, G59S
VL: B1 VL with I30V, L33V, L47V, E93D, N94S
B11: 371_G04 (antibody, V domains shown)
VH: B1 VH with S30D, T58K, G59S, H106A
VL: B1 VL with I30L, V51A, R54L, A55H, N94S
B12: 368_H02 (antibody, V domains shown)
VH: B1 VH with S33G, S49A, G55S, G59S, H106A
VL: B1 VL with I30V, S31T, L47V, V51A, N94S
B13: 369_A07 (antibody, V domains shown)
VH: B1 VH with S49A, T58K, H106A
VL: B1 VL with I30L, L47V, V51A, N94S
B14: 370_D05 (antibody, V domains shown)
VH: B1 VH with S30D, S31D, G50N, T58K, H106A
VL: B1 VL with S31T, L47V, V51A, A55H, E93D, N94T
B15: 369_C05 (antibody, V domains shown)
VH: B1 VH with S30D, S49A, G59S, H106A
VL: B1 VL with I30S, L33V, L47V, V51T, A55H, E93N, N94S
B16: 371_G02 (antibody, V domains shown)
VH: B1 VH with S30D, S33G, S49A, G50S, G59S
VL: B1 VL with I30L, V51A, E93D, N94L
B17: 371_H05 (antibody, V domains shown)
VH: B1 VH with S33G, G55S, T58K, G59S, H106A
VL: B1 VL with V51A, R54L, E93S, N94L
B18: 368_F09 (antibody, V domains shown)
VH: B1 VH with S33G, G55S, G59S
VL: B1 VL with I30L, S31T, V51A, T52S, R54L, A55Q, N94T
B19: 370_F03 (antibody, V domains shown)
VH: B1 VH with S33G, G50S, G55S, T58K, G59S, H106A
VL: B1 VL with I30L, L33V, V51A
B20: 367_D11 (antibody, V domains shown)
VH: B1 VH with S30D, S33G, N35H, G50N, T58K, G59S, G99A, H106A
VL: B1 VL with V51A, E93D, N94S
B21: 368_A04 (antibody, V domains shown)
VH: B1 VH with S30D, S31D, S49A, T58K, G59S
VL: B1 VL with I30L, S31T, L47V, N94L
B22: 370_A02 (antibody, V domains shown)
VH: B1 VH with S30D, S33G, S49A, H106A
VL: B1 VL with I30V, S31T, L47V, V51A, E93D, N94S
B23: 369_D07 (antibody, V domains shown)
VH: B1 VH with S33G, T58K, G59S
VL: B1 VL with I30V, L47V, V51A, E93D, N94L
B24: 371_B04 (antibody, V domains shown)
VH: B1 VH with T58K, G59S, H106A
VL: B1 VL with I30L, L47V, A55H, E93D, N94S
B25: 370_H07 (antibody, V domains shown)
VH: B1 VH with S49A, T58K, G59S, H106A
VL: B1 VL with I30L, V51A, R54L, Y92D, E93S, N94S
B26: 371_C01 (antibody, V domains shown)
VH: B1 VH with S33G, N35H, G50S
VL: B1 VL with I30V, V51A, A55H, E93D
B27: 371_F10 (antibody, V domains shown)
VH: B1 VH with S30D, S33G, G55S, G59S, H106A
VL: B1 VL with I30S, L47V, N94S
B28: 371_C12 (antibody, V domains shown)
VH: B1 VH with S49A, G55S, T58K, G59S
VL: B1 VL with I30V, L33V, V51A, E93D, N94T
B29: 370_B12 (antibody, V domains shown)
VH: B1 VH with S31D, T58K, H106A
VL: B1 VL with I30L, L33V, L47V, V51T, N94T
B30: 371_G09 (antibody, V domains shown)
VH: B1 VH with S49A, G50N, H106A
VL: B1 VL with I30L, L47V, V51A, Y92D, E93S, N94T
B31: 370_B03 (antibody, V domains shown)
VH: B1 VH with S49A, G50N, H106A
VL: B1 VL with I30L, L47V, V51A, E93N
B32: 371_E07 (antibody, V domains shown)
VH: B1 VH with S30D, S49A, G59S, H106A
VL: B1 VL with V51A, R54L, N94S
B33: 369_D09 (antibody, V domains shown)
VH: B1 VH with S31D, S33G, G50N, G59S, H106A
VL: B1 VL with I30L, S31T, V51A, E93D, N94S
B34: 368_B09 (antibody, V domains shown)
VH: B1 VH with S30D, S33G, G50N, T58K
VL: B1 VL with I30L, V51A, A55H, E93D, N94T
B35: 371_D02 (antibody, V domains shown)
VH: B1 VH with S30D, S31D, S49A, T58K, G59S, H106A
VL: B1 VL with I30V, S31T, V51A, E93D, N94S
B36: 369_E06 (antibody, V domains shown)
VH: B1 VH with S33G, G59S, H106A
VL: B1 VL with L47V, V51A, A55H, E93D, N94S
B37: 371_D04 (antibody, V domains shown)
VH: B1 VH with S30D, S31D, S49A
VL: B1 VL with I30V, L33V, V51A, R54L
B38: 371_F11 (antibody, V domains shown)
VH: B1 VH with G59S, H106A
VL: B1 VL with L33V, E93D, N94L
B39: 369_D03 (antibody, V domains shown)
VH: B1 VH with G59S
VL: B1 VL with I30L, S31T, L47V, V51A
B40: 367_B09 (antibody, V domains shown)
VH: B1 VH with S30D, S33G, N35H, S49A, G50S, G59S, G99A, H106A
VL: B1 VL with I30L, L33V, L47V, V51A
B41: 370_H02 (antibody, V domains shown)
VH: B1 VH with S30D, G55S, G59S
VL: B1 VL with I30L, S31T, V51A, N94S
B42: 368_H05 (antibody, V domains shown)
VH: B1 VH with S49A, G50N, T58K, G59S
VL: B1 VL with I30V, L33V, L47V, V51T, N94S
B43: 371_G11 (antibody, V domains shown)
VH: B1 VH with S33G, G50N, G55S, G59S, H106A
VL: B1 VL with I30L, L33V, V51A, R54L, E93D, N94S
B44: 371_A10 (antibody, V domains shown)
VH: B1 VH with S30D, S31D, T58K, H106A
VL: B1 VL with I30V, L47V, V51A
B45: 370_B11 (antibody, V domains shown)
VH: B1 VH with S30D, G55S, G59S
VL: B1 VL with I30L, L47V, V51A, A55H, S91G, E93D, N94L

Substitutions are numbered along the chain they refer to.

This experiment addresses human Fc (human). The experiment is described as follows: ELISA, negative control. In general terms: ELISA stands for enzyme-linked immunosorbent assay.
In turn, B1 registered an optical density of 0.348 OD. Then B2, with 0.341 OD.

The molecule B3 had an optical density of 0.292 OD.

In turn, B4 yielded an optical density of 0.367 OD. Regarding B5, the optical density worked out at 0.378 OD.

In the case of B6, the optical density was determined as 0.33 OD. The molecule B7 returned an optical density of 0.269 OD. Then B8, with 0.314 OD; and B9, with 0.35 OD. In the case of B10, the optical density came out at 0.347 OD.

Take B11: the optical density is 0.325 OD. For the molecule B12, the optical density stood at 0.348 OD.

B13 came in with an optical density of 0.288 OD.

In the case of B14, the optical density was 0.333 OD.

In turn, B15 returned an optical density of 0.32 OD. Then B16, with 0.514 OD; and B17, with 0.321 OD.

B18 registered an optical density of 0.242 OD. In the case of B19, the optical density was 0.373 OD. For the molecule B20, the optical density was found to be 0.304 OD. The molecule B21 returned an optical density of 0.283 OD. In turn, B22 showed an optical density of 0.425 OD. In turn, B23 registered an optical density of 0.363 OD. With B24, the optical density came out at 0.295 OD.

Take B25: the optical density was found to be 0.403 OD. As for B26, the optical density is 0.402 OD. As to B27, the optical density worked out at 0.299 OD.

B28: the optical density came out at 0.544 OD. Take B29: the optical density turned out to be 0.478 OD.

Turning to B30, the optical density worked out at 0.315 OD. As for B31, the figure is 0.3 OD; as for B32, 0.337 OD; as for B33, 0.287 OD.

For B34, the optical density worked out at 0.258 OD. Molecule B35 gave an optical density of 0.385 OD. Then B36, with 0.306 OD; and B37, with 0.276 OD. Take B38: the optical density was found to be 0.331 OD.

As to B39, the optical density came to 0.391 OD.

In turn, B40 came in with an optical density of 0.476 OD.

Regarding B41, the optical density came out at 0.386 OD. In turn, B42 returned an optical density of 0.277 OD. In turn, B43 returned an optical density of 0.399 OD. As for B44, the figure is 0.338 OD; as for B45, 0.326 OD.
